{
  "source": "paper PMC9178793",
  "about": "“A Direct Assay for Measuring the Activity and Inhibition of Coactivator-Associated Arginine Methyltransferase 1” (Biochemistry, 2022)",
  "proteins": {"B1": {"name": "CARM1 (Mus musculus) (protein)", "chain": "GHTLERSVFSERTEESSAVQYFQFYGYLSQQQNMMQDYVRTGTYQRAILQNHTDFKDKIVLDVGCGSGILSFFAAQAGARKIYAVEASTMAQHAEVLVKSNNLTDRIVVIPGKVEEVSLPEQVDIIISEPMGYMLFNERMLESYLHAKKYLKPSGNMFPTIGDVHLAPFTDEQLYMEQFTKANFWYQPSFHGVDLSALRGAAVDEYFRQPVVDTFDIRILMAKSVKYTVNFLEAKEGDLHRIEIPFKFHMLHSGLVHGLAFWFDVAFIGSIMTVWLSTAPTEPLTHWYQVRCLFQSPLFAKAGDTLSGTCLLIANKRQSYDISIVAQVDQTGSKSSNLLDLKNPFFRYTGTTPSPPPGSHYTSPSENM", "notes": "corresponding to the PRMT core (residues 130–497, mmCARM1_130–497) were amplified by PCR; GST (followed by TEV protease cleavage site) (N, cleaved yes); made in house; host or cells: Sf9 insect cells (baculovirus)"}},
  "key": {"[1]": {"substrate": "CSCC[C@H](NC(=O)[C@@H](NC(=O)[C@H](CO)NC(=O)[C@H](Cc1ccccc1)NC(=O)[C@@H]1CCCN1C(=O)[C@@H]1CCCN1C(=O)[C@H](CCCNC(=N)N)NC(=O)[C@@H]1CCCN1C(=O)[C@H](C)NC(=O)[C@H](C)NC(=O)[C@@H]1CCCN1C(C)=O)[C@@H](C)O)C(N)=O", "assay": "kinetic analysis of CARM1 substrates (KM determination, MRM LC-MS enzymatic activity assay)", "type": "biochemical, Mus musculus", "conditions": "other: fixed 100 μM AdoMet, PABP1 456–466 0.05–100 μM", "description": "(§1) The Mus musculus CARM1 (mmCARM1) gene sequence corresponding to the PRMT core (residues 130–497, mmCARM1_130–497) were amplified by PCR from the original GST-CARM1 construct.[19] The sequences were cloned in the pDONR207 (Invitrogen) vector using a BP reaction (Gateway Cloning, Life Technologies). The positive clones were confirmed by sequencing (GATC). The sequences were subcloned in a pDEST20 vector using an LR reaction. The resulting recombinant protein is harboring an amino-terminal glutathione S-transferase (GST) tag followed by a Tobacco etch virus (TEV) protease cleavage site. DH10Bac competent cells containing the baculovirus genome were transformed with the pDEST20-CARM1 plasmids and plated onto LB agar media containing 15 mg·mL^–1 tetracycline, 7 mg·mL^–1 gentamicin, 50 mg·mL^–1 kanamycin, 25 mg·mL^–1 X-Gal, and 40 mg·mL^–1 IPTG. Bacmid DNA purified from recombination-positive white colonies was transfected into Sf9 cells using the Lipofectin reagent (Invitrogen). Viruses were harvested 10 days after transfection. […]\n(§2) Enzyme activity assays were performed with CARM1 (286 nM corresponding to 11.68 ng/μL) in 20 mM Tris buffer (pH 8) containing 50 mM Tris NaCl, 1 mM EDTA, 3 mM MgCl2, 0.1 mg/mL BSA, and 1 mM dithiothreitol (DTT). […] The supernatant (60 μL) was transferred to a new 96-well plate and analyzed. […]"}, "[2]": {"substrate": "C[S+](CC[C@H](N)C(=O)[O-])C[C@H]1O[C@@H](n2cnc3c(N)ncnc32)[C@H](O)[C@@H]1O", "assay": "kinetic analysis of CARM1 substrates (KM determination, MRM LC-MS enzymatic activity assay)", "type": "biochemical, Mus musculus", "conditions": "other: fixed 100 μM PABP1, AdoMet 0.05–100 μM", "description": "as §1, §2"}},
  "data": [
    {"protein": "B1", "values": [
      {"measurement": "Km", "setting": "[1]", "value": "12.03 ± 2.28", "unit": "µM"},
      {"measurement": "Km", "setting": "[2]", "value": "5.46 ± 0.01", "unit": "µM"}
    ]}
  ]
}
